Laboratory results reported in the DeepSol protein solubility set.

Assay: soluble on expression in E. coli; label from the status in PepcDB or PDB records

Sequence	soluble on expression in E. coli
MGSDKIHHHHHHMNRRDLLVGLGAATLVPKASWADAHNPAFLSAAQAPDGNYHLCGLDPRGDVVFSIPLPGRGHAAAAHPTRPEAVAFARRPGRFALILDCVTGQETARLLPPPNRHFYGHGTFSSDGDVLFTTENDLTTLEGRIGLWDAAHGYVRLGDVPSGGIGPHDIARLPGTETLVIANGGIATHPDSGRTPLNPATMRSNLAYMRTDGTLLERVELDVTLRQNSIRHLSIRDDGLVSAGMQWNGAEGEHPPLTLLHRIGAAPRLLAAPTQTHRQLDGYVGSISFDQAGAHVAVTSPRGGTVHIFDVNSGAFAGLITAEDICGLALSHRAGLIATTGQGITGFVAQDDLTQMRHSSWRWDNHIVAI	not soluble
MKGRRPPASPTAAASAQLELPLLAPPAAPDAAPPSADPAQPDPAAPLGPDQRRLALGERTLVYHLKRSSRRTIGFVVDDRGLSITAPRWVTLAEIEHAIAEKQKWIFAKLAEWHTSAARRVLPPMRWEDGATLPFLGKPVMLKLESPIGALVFDADMRTLHLGLPPTATGQQIKDRVQGWLQTQARRLFGERLDVYAERLGVRHSAYALSSAATRWGSCTADGKIRLNWRLVHFPLSLIDYVVAHELAHLKEMNHSPRFWDTVESIFPEFREAREQLRSHPPEYLPVFLEHHHHHH	not soluble
MNKTELIKNVAQNAEISQKEATVVVQTVVESITNTLAAGEKVQLIGFGTFEVRERAARTGRNPQTGEEMQIAASKVPAFKAGKELKEAVK	soluble
MGSDKIHHHHHHMAELIFSRETDCRYCYKCLRNCPVKAISFKSGKSTVLEEECVFCGSCLDICPQNARSYRKDVERFLSLSEPFLVSIAPSFFAYFENPLKVIGVLKEMGAVVVQETAVGAEIVSRRYEEVFEKHSGPFITTACPVVVNLAEKHFPNVLKYFAPVDSPLMTHAKFLKTRYGDFPIVFVGPCIAKKSESDLVDVALTFEELEEILEEREGKEALPDGPYPDRARFYPTTDGIGYTVSVPWEKKLVVEGVENLMRVFSRIDEYKSVFIEASACYGSCLNGPVMKKKSNGKERLLEWQKKLPKEPK	not soluble
MSLKVRLEDVAKRLGVSVATVSRSLAGHPAISSETRGAVRAVASELGYRIPTQGRRGKKSSTKLIGVVVGALHNRFMTLLLTHLHDALQELGYQMTLVIDSMNDSQNLQALRPLIEGYLDGLIFATATLDSPVIAEMQRRAIPLVLVVRSVDDVRVDTVEIDNVHAGAVAAEHLYQLGHRRIGLVMGPQNTSTSRDRAKGALTYLADIGISSEAVTLMWSDYTTEAGYSSAMAIFNEADPVTAIVAGNDTIALGVLEAAARRAIKVPEQLSVIGFDDMPLAGSPLVALTSIRQPVRAMARTAARRLIDRIRAGGMGAPVHDVLPIQLVRRETTGPREGHHHHHH	soluble
MGKARGVNNGVNESSLGYLFGSGQPSSAAAATMGTTTTTTTTTTTDGTGGRPITTTTTTVTDNKKTSAGVRGSPNNYFRSEGQNCGNFLTDRPSTKVHAAPGGGSSLDYLFGGPSPAGSGNK	not soluble
MATKRDYYEILGLSKDSSVEDIKKTYRKLALQYHPDRNKEPGAEEKFKEISEAYAVLSDAEKRAQYDRFGHAGIDNQYSAEDIFRGADFGGFGDIFEMFFGGGRRGGPMGPRRGSDLQYDLYVTFEEAAFGVRKDIDIPRTERCSTCSGTGAKPGTSPKRCPNCGGTGQVRTTRSTLGMQFVSTTTCSACHGRGQVVESPCPTCSGAGRVRSRRKMSVNVPAGADSGMTLRLSGEGDAGEPGAPSGDLYIIVHVMEHKYFKRVDYDVISELPISFTQAALGADIMVDTLYGKVKMNIPSGTQTHSVFRLKDKGIQRLQGHGKGDQLVRVIIRTPTKLTQEQKDLLHQFEYLSNGKKPEAEERSRSDKQKSEKPRKSKGLFEKVKDAFES	not soluble
MEDELPIIKGKKVILFAPTFRGSGHGTAHYPFFKIDFERLARYCEKNNAVVLFKMHPFVKNRLNIADKHKQYFVDVSDFREVNDILFITDLLISDYSSLIYEYAVFKKPMIFYAFDLEDYITTRDFYEPYESFVPGKIVQSFDALMDALDNEDYEGEKVIPFLDKHFKYQDGRSSERLVRNLFGS	soluble
MSLSKSRKIDVHAHVLPKNIPDFQEKFGYPGFVRLDHKEDGTTHMVKDGKLFRVVEPNCFDTETRIADMNRANVNVQCLSTVPVMFSYWAKPADTEIVARFVNDDLLAECQKFPDRLVPLGTLPMNDVQRAVEEVKRCVSMGIKGFEVGSHVAEKSLDHRDFWPLYKICEELSVVLFVHPWDMHMWDGRLDKYWMPWLVGMPSETAQAICSVLMGNILVLFPKLKLCFAHGGGAYPQIRGRVSHGWNVRPDLCAGKCKVAPNKLDGLLWTDSLVHDPKALELLINTVGKEHIVLGTDYPFPLGELEVGRVVEEYKPFSAKDREDLLWKNAVKMLDIDENLLFNKDFEGHHHHHH	not soluble
GSHMAGLPRRIIKETQRLLAEPVPGIKAEPDESNARYFHVVIAGPQDSPFEGGTFKLELFLPEEYPMAAPKVRFMTKIYHPNVDKLGRICLDILKDKWSPALQIRTVLLSIQALLSAPNPDDPLANDVAEQWKTNEAQAIETARAWTRLYAMNNI	soluble
CISMSKIAVVINPIAGGGRGKKVWKVLKPGLHALFEQTVYRISNRVNDLEAITDGLLAENPDSLLIIGGDGTLNHVLNGLIEKDKLKNPQTKIAFFNAGCGGDFTRQFPQQKMTEFLDRLSHNQFIKCDIGKITLAN	not soluble
MAHHHHHHMSQTATAGPALPPPEEPLTYPITFTKQAEESPQSEPGVAAPAAPSGLHQISIFSALHFLLPVYELAGWLPKTTVQHSRKSGDKSSPVSATAGGSKSTSGTAADVSIDLDAIPHDDVRAALRLLPVFEKFFVEGSKIVAQHTDLYYFIESFTLPTPKGPKVITRSKVEGDYRAVHQPSHAPASLGAAGAMTKTTVTNSTAYFSLLPGHNQFLLYYEDCEKLRHFTYLQLDQLRFAWVAVKELLEESKVFNLSDGSLTGLAKRDLQKNNTASPFCLASSAQAATATERASSHDNGSNGGAVIGRGGGNARLHQGTSGNVITAPSKETTEEKKRIQQMSFLREELEHECQRRWPYTPVSKSCIFSLEEKVEAELPADALEQLGIVGAHNTRNSKNGNRRGPRYYLATVDLPLLNKKGGAARFKAPRWWNNRRDAESAAAEATLLALRSMKS	not soluble
MDTGELHDLTVKGAVVTQLERCEVACQRLFQNLALLGLELQNSESITEGVCDSKAASDLGSSVELLENEERALRLCVDRFVLELRQVENLAKTLDGIREEEERILSLEQRSIEQAERCFYLWNDAREMLRGTRLTSIKEVLESAARYPRIPSWTPLPTSN	not soluble
MLARLLLSFSVVLTAFGVGAAEVDKTQPYQMMKQVAEVTFARLKAEQPKIKQDPNLLKVIVEQELMPYVNDRYAALKLLGPNLKGAKREDVLEFVDAFRAYLIASYAQVLTQYSDQQIEFGPEPKLDDSKRITSIKVEIIDAPRPNIKLEFKLRKDNKTDEWEAFDMVAEGISLLSSKQSEWNTKIRQDGILAVAQDLEKLAAEPIRFEAKK	soluble
EVQLVESGGGLVQPGGSLRLSCAASGFTFTSTGISWVRQAPGKGLEWVGRIYPTNGSTNYADSVKGRFTISADTSKNTAYLQMNSLRAEDTAVYYCARTYGIYDLYVDYTEYVMDYWGQGTLVTVSSASTKGPSVFPLAPSSKSTSGGTAALGCLVKDYFPEPVTVSWNSGALTSGVHTFPAVLQSSGLYSLSSVVTVPSSSLGTQTYICNVNHKPSNTKVDKKVEPKSCDKTHT	soluble
MGSDKIHHHHHHMTAPTAQSMQAQPIHARLMNGEVLSQDDATAFMREVMSGDMSGVRMAAALAALRVRGETPEEIAGFAQAMRESAVTVKVRPRDVLMDVVGTGGDGAHTFNISTTTAFVLAGAGVPIAKHGNRAASSRAGSADVLEALGVNLDASPEVIQEAIDTLGVGFMFARNYHPALRHAAPVRSDLAARTVFNILGPLSNPAGATHLVVGVFRADLTRTLAEALRHLGAKGATVVYGDGLDEFTVCGPNTVSGLRDGEIIDRTMHPEEFGVDLHPKTAIVGGSPAENAEITHALLTGGGTPAQKDIVALNAGAALRTAGRVGTIREGVEQAREVMKGGQGWEMLQKYGALTKR	not soluble
APAADAAQAHDPLSVQTGSDIPASVHMPTDQQRDYIKREVMVPMRDGVKLYTVIVIPKNARNAPILLTRTPYNAKGRANRVPNALTMREVLPQGDDVFVEGGYIRVFQDIRGKYGSQGDYVMTRPPHGPLNPTKTDETTDAWDTVDWLVHNVPESNGRVGMTGSAYEGFTVVMALLDPHPALKVAAPESPMVDGWMGDDWFHYGAFRQGAFDYFVSQMTARGGGNDIPRRDADDYTNFLKAGSAGSFATQAGLDQYPFWQRMHAHPAYDAFWQGQALDKILAQRKPTVPMLWEQGLWDQEDMWGAIHAWQALKDADVKAPNTLVMGPWRHSGVNYNGSTLGPLEFEGDTAHQYRRDVFRPFFDEYLKPGSASVHLPDAIIYNTGDQKWDYYRSWPSVCESNCTGGLTPLYLADGHGLSFTHPAADGADSYVSDPAHPVPFISRPFAFAQSSRWKPWLVQDQREAESRPDVVTYETEVLDEPVRVSGVPVADLFAATSGTDSDWVVKLIDVQPAMTPDDPKMGGYELPVSMDIFRGRYRKDFAKPEALQPDATLHYHFTLPAVNHVFAKGHRIMVQIQSSWFPLYDRNPQKFVPNIFDAKPADYTVATQSIHHGGKEATSILLPVVKQKLGPEQKLISEEDLNSAVDHHHHHH	soluble
MSAESGVAALLRLMAWLSPAFPVGGFSYSGGLEKAVEDGRVCDAAGLGGWVETLLRHGSLWNDAVFLAHAWRSSQDTTALSETANLGRALAGSAERYRETVLLGDAFIAAASAWPHAVLELLPKEAPYPVAIGAVAAGHGVPLRETLAAFLHAGVSQIVSAGIRLGVAGQKDGVAILAASEAVIEEIAARAALSTLDDLGSATVIADTAAMRHETQGTRLFRSLEHHHHHH	not soluble
MSLTDRIFINAVDAGGQPIHLVVRDGRFIAIGADCAAAPGAETIDLDGRVVLPGFVDGHIHLDKSFVGDRWVPHEPVGTLRERLAVEKRQLAAAPPIVERANALIAQAAAFGTVAMRSHVDVDATTGLSNLQAVMAAREQWRGIVDIELVAFPQAGVVTCPGTAEILDVAVREGADVVGGIDPTTLDGDADGQLDIVFGIAEKRGAKIDIHLHEPGETGIAQLLRIAARTRAAGLGGRVNVSHAYALGQVSDGDVQRTAAALAEAGVSILTNAPGDCAFPPVQALRDAGVHVFAGNDNIRDAWWPYGNGDMLQRAMMVGYRSGFYTDEALGIALDMATHAGARVIGKDNYGIAVGRDATFVAVRAPNAAAAVAGVPAERWVFRRGESDTGAPFAPALRFTREGHHHHHH	soluble
METRRAERINKLIQALKRSDKIHLKDAANLLRVSEMTIRRDLSAEPTSVILLGGYVVMDPKSNNANNYFVSDQQAKQVEEKRRIGQLAAQLIIENDTVFFDCGTTIPWIIDEIDEELAFTAICYSLNTFLALQDKPNCKVILCGGEFKPNNCIFTPLSQQSELDNICPNKAFISAAGVSIEYGATCFNFDEILLKHRAMAKSQYKILVADHSKFGKIKPASIGTLAQFDALVTDRPPVAEFYLFFSQHSVKIYC	not soluble
MSASFSAPRLRPRQLSAGDLVEESLLDPANDYLRIVRARQPGMDLRQWIAAAGAGLRDSLLRHGGILFRGFAVDGAEGFSQAVQSFSPNMLDYLERAAARQEVAHRVFTSTEFSPDGWIPPHHEMSYSHNWPSYIHFYCQTPPATQGRTPLADERRVSARIPEAIRQRFLRHGVCYVRNYGPEIDLTWQEGFQTDSRAEVEAYCRQTGTQWTWLDDQRLNTRQVRQAMVRHPLSGETLWFNHAHMFHVSNMPPALARALLDEVGEQGLPRNAYYGDGSPIEAEVLDTIRAAYREETRAFAWERGDVLMLDNFISVHGREPYTGERKVLVAMTDLHVHQP	not soluble
